Data from patent publication US20110027269A1.
The star is where a group is joined. Biotin = O=C1N[C@H]2[C@H](CS[C@H]2CCCCC(=O)*)N1

Molecular target: 14-3-3 proteins present within the KLCCM
Assay: cell-based or functional assay

MMP-1 expression in dermal fibroblasts treated with KLCCM (western blot, MMP-1/β-actin ratio): 68.8 % reduction
B1: biotinylated R18 (peptide)
peptide: Biotin-PHCVPRDLSWLDLEANMCLP-OH
modifications: cysteine pairing not given here
